Conditions in all cases: both partners purified
Assay [1] concerns the target T1, calmodulin purified from bovine brain (bovine, UniProt P62157 1-149).
T1 construct: calmodulin, bovine brain; also called CaM; pure bovine brain CaM; source: purified from bovine brain; bought: Calbiochem
In words: pull-down; 50 pmol GST-fusion protein with purified bovine brain CaM (50 pmol) in 250 µl of 100 mM Tris-HCl pH 7.5 with 0.1 mM CaCl2; 4°C; glutathione-sepharose 4B beads; immunoblot with anti-CaM; for the mutants density of CaM against loaded GST-fusion protein. In general terms: In western blotting, separated proteins are transferred to a membrane and probed.

In assay [2] the target is T2, dansyl-calmodulin (bovine brain) (bovine, UniProt P62157 1-149, dansyl (0.18–0.34 mol of dansyl moiety per mol of CaM), site not stated).
T2 construct: calmodulin, bovine brain, dansylated; also called dansyl-CaM; source: CaM purified from bovine brain (bought: Calbiochem), labelled with dansyl chloride
Nature of the assay: dansyl-CaM fluorescence emission spectrum; 106 nM dansyl-CaM, 500 nM peptide, 0.1 mM calcium, 1 hour at room temperature; excitation 340 nm, emission 425–600 nm; compared with dansyl-CaM in 10 mM EGTA.

The target in assay [3] is T2, dansyl-calmodulin (bovine brain). Nature of the assay: other fluorescence titration; peptides (25–2000 nM) with 147 nM dansyl-CaM, 0.1 mM calcium, 1 hour at room temperature; emission at 485 nm; apparent dissociation constants.

B1: GST-ATi3(213–242) (domain or fragment)
chain: TSYTLIWKALKKAYEIQKNKPRNDDIFRII
notes: amplified from pcDNA3.1-AT1A receptor; cloned in pGEX-4T-1 at BamH I and EcoR I downstream of GST; also called GST-i3 loop; i3 loop of the AT1A receptor; source: E. coli BL21, purified (glutathione sepharose 4B); not shown: GST, N-terminal, kept
In the case of B1, in assay [1], the binding result is “binds”.

B2: GST-ATctN(297–324) (domain or fragment)
chain: LNPLFYGFLGKKFKKYFLQLLKYIPPKA
notes: N-terminal part of the carboxyl tail of the AT1A receptor, amino acids 297–324; stop codon after 324A in GST-ATct(297–359); also called GST-N-terminus of carboxyl tail; source: E. coli BL21, purified (glutathione sepharose 4B); not shown: GST, N-terminal, kept
Turning to B2, the binding result in assay [1] is on record as “binds”.

B3: ATi3(214–231) peptide (peptide)
peptide: SYTLIWKALKKAYEIQKN
notes: also called 1–12 motif peptide of the i3 loop; source: synthetic peptide (MUSC Proteogenomics Facility, HPLC purified)
Regarding B3, in assay [2], the “fold increase in dansyl-CaM fluorescence intensity at 486 nm (500 nM peptide)” value is about 3.2 fold. In assay [3], the Kd is 177 nM.

B4: ATct(302–317) peptide (peptide)
peptide: YGFLGKKFKKYFLQLL
notes: also called 1-5-10 motif peptide of the carboxyl tail; source: synthetic peptide (MUSC Proteogenomics Facility, HPLC purified)
Take B4: the “fold increase in dansyl-CaM fluorescence intensity at 482 nm (500 nM peptide)” value in assay [2] is about 3.5 fold. In assay [3], the Kd was found to be 79.4 nM.

B5: ATct(302–317)F313A peptide (peptide)
peptide: YGFLGKKFKKYALQLL
notes: AT1A receptor carboxyl tail, amino acids 302–317, with F313A; source: synthetic peptide (MUSC Proteogenomics Facility, HPLC purified)
With B5, the Kd in assay [3] was 388 nM.

B6: ATct(302–317)F309A peptide (peptide)
peptide: YGFLGKKAKKYFLQLL
notes: AT1A receptor carboxyl tail, amino acids 302–317, with F309A; source: synthetic peptide (MUSC Proteogenomics Facility, HPLC purified)
B6: in assay [3], the Kd was determined as 308 nM.

B7: GST-ATi3N(213–234) (domain or fragment)
chain: TSYTLIWKALKKAYEIQKNKPR
notes: also called GST-N-terminus of the i3 loop; source: E. coli BL21, purified (glutathione sepharose 4B); not shown: GST, N-terminal, kept
With B7, the binding result in assay [1] is listed as “binds”.

(Values after PMC3673938, “Two Distinct Calmodulin Binding Sites in the Third Intracellular Loop and Carboxyl Tail of Angiotensin II (AT1A) Receptor” (PLoS ONE, 2013).)
